Assay results: US20230357447A1 (JANUX THERAPEUTICS, published 2023)

Legend:
[1] = target: T1, anti-CD28 scFv (VH-linker 1-VL) (biotinylated (site not stated)); assay: phage ELISA; biotinylated scFv on neutravidin plate; anti-M13-HRP;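 note: crude clonal phage supernatant added to wells pre-incubated with soluble CD28 protein or only blocking buffer, then washed, bound phage read out with an HRP-linked anti-M13 antibody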
T1 construct: Captured as biotinylated scFv on neutravidin coated plates in the phage ELISA

[2] = target: T1, anti-CD28 scFv (VH-linker 1-VL); assay: phage ELISA; scFv wells pre-incubated with soluble CD28 (competitor);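 note: crude clonal phage supernatants added to wells pretreated with soluble CD28 in blocking buffer, bound phage read via HRP-linked anti-M13 antibody, reference wells got blocking buffer only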
Experimental: Clonal phage were harvested as crude supernatants and screened via standard enzyme linked immunosorbent assays (ELISAs). […] Prior to the addition of clonal phage, wells were incubated with blocking buffer and CD28 soluble protein or blocking buffer alone. Without washing or aspirating, clonal phage supernatants were then added to the wells and incubated for a short time. Wells were then washed followed by detection of bound phage using a horse radish peroxidase conjugated anti-M13 antibody.

T1 sequence (scFv, as listed by the source): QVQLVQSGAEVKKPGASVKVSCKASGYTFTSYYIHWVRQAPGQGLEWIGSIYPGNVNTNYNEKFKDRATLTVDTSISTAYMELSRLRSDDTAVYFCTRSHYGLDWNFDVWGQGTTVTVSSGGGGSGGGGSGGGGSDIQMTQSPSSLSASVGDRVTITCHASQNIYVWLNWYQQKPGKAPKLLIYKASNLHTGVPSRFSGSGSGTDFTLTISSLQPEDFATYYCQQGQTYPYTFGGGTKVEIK

Row | Binder | CD28 scFv signal [1] | CD28 scFv signal in presence of CD28 [2]
1 | MYWCATSMWNRCFV (on phage (pIII fusion)) [Phage-262 clonal phage peptide] | 0.398 | 0.415
2 | MDWCPRDLWAMCFA (on phage (pIII fusion)) [Phage-285 clonal phage peptide] | 2.63 | 0.889
3 | MDWCPRSHWSECFS (on phage (pIII fusion)) [Phage-277 clonal phage peptide] | 0.253 | 0.087
4 | MDWCPKHLWNKCFN (on phage (pIII fusion)) [Phage-246 clonal phage peptide] | 1.16 | 0.092
5 | DSFCTWSAWQECGR (on phage (pIII fusion)) [Phage-269 clonal phage peptide] | 0.13 | 0.101
6 | MDWCPSDMWAHCYN (on phage (pIII fusion)) [Phage-249 clonal phage peptide] | 1.21 | 0.109
7 | IDWCPKIHWDLCYF (on phage (pIII fusion)) [Phage-276 clonal phage peptide] | 0.295 | 0.082
8 | MDWCPMFLWHECFN (on phage (pIII fusion)) [Phage-309 clonal phage peptide] | 2.38 | 0.591
9 | MDWCPMFMWHECFN (on phage (pIII fusion)) [Phage-261 clonal phage peptide] | 2.23 | 1.04
10 | MDWCPRFLWHECFN (on phage (pIII fusion)) [Phage-257 clonal phage peptide] | 2.59 | 0.351
11 | MDWCPMFLWDECFN (on phage (pIII fusion)) [Phage-318 clonal phage peptide] | 2.29 | 0.203
12 | MDWCPFDLWHVCYN (on phage (pIII fusion)) [Phage-256 clonal phage peptide] | 2.6 | 0.651
13 | MDWCPRNMWHHCFD (on phage (pIII fusion)) [Phage-248 clonal phage peptide] | 1.6 | 0.524
14 | MDWCPRHMWINCFA (on phage (pIII fusion)) [Phage-252 clonal phage peptide] | 0.92 | 0.165
15 | MDWCPRNLWHLCFA (on phage (pIII fusion)) [Phage-245 clonal phage peptide] | 1.4 | 0.164
16 | MERCPRYLWHMCYS (on phage (pIII fusion)) [Phage-286 clonal phage peptide] | 2.59 | 0.84
17 | MDWCPRYLWHVCFN (on phage (pIII fusion)) [Phage-239 clonal phage peptide] | 2.6 | 0.409
18 | MDWCPRYLWHVCFY (on phage (pIII fusion)) [Phage-291 clonal phage peptide] | 2.5 | 1.14
19 | MDWCPRYLWTECFS (on phage (pIII fusion)) [Phage-303 clonal phage peptide] | 2.42 | 0.329

Row | Binder | CD28 scFv signal [1] | CD28 scFv signal in presence of CD28 [2]
20 | MDWCPRYLWHECFF (on phage (pIII fusion)) [Phage-301 clonal phage peptide] | 2.45 | 0.682
21 | MDWCPSYLWHECFF (on phage (pIII fusion)) [Phage-237 clonal phage peptide] | 2.61 | 0.447
22 | MDWCPRDLWTECFS (on phage (pIII fusion)) [Phage-305 clonal phage peptide] | 2.4 | 0.174
23 | MDWCPRYLWHECFD (on phage (pIII fusion)) [Phage-244 clonal phage peptide] | 2.07 | 0.177
24 | MDWCPRSLWHVCFN (on phage (pIII fusion)) [Phage-258 clonal phage peptide] | 2.41 | 0.238
25 | MDWCPRHLWHVCFN (on phage (pIII fusion)) [Phage-264 clonal phage peptide] | 2.67 | 0.636
26 | MDWCPRTLWHVCFN (on phage (pIII fusion)) [Phage-240 clonal phage peptide] | 2.6 | 0.551
27 | MDWCPRHLWSVCFN (on phage (pIII fusion)) [Phage-255 clonal phage peptide] | 2.65 | 0.825
28 | MDWCPRYLWHVCFD (on phage (pIII fusion)) [Phage-302 clonal phage peptide] | 2.44 | 0.31
29 | MDWCPRYLWHECFS (on phage (pIII fusion)) [Phage-235 clonal phage peptide] | 2.65 | 0.303
30 | MDWCPRSLWDYCFA (on phage (pIII fusion)) [Phage-294 clonal phage peptide] | 2.49 | 0.235
31 | MDWCPRSLWNYCFA (on phage (pIII fusion)) [Phage-316 clonal phage peptide] | 2.32 | 0.198
32 | MDWCPRYLWDYCFA (on phage (pIII fusion)) [Phage-280 clonal phage peptide] | 2.71 | 0.382
33 | MDWCPRSLWNYCFN (on phage (pIII fusion)) [Phage-313 clonal phage peptide] | 2.35 | 0.209
34 | MDWCPIHLWNECFN (on phage (pIII fusion)) [Phage-314 clonal phage peptide] | 2.35 | 0.157
35 | MDWCPTSFWNRCFH (on phage (pIII fusion)) [Phage-271 clonal phage peptide] | 0.087 | 0.092
36 | VTSCPTTMWNRCFS (on phage (pIII fusion)) [Phage-266 clonal phage peptide] | 1.22 | 0.546
37 | MVGCATSMWNRCLT (on phage (pIII fusion)) [Phage-253 clonal phage peptide] | 0.77 | 0.746
38 | MDWCPVFMWNECFN (on phage (pIII fusion)) [Phage-260 clonal phage peptide] | 2.66 | 0.356

Row | Binder | CD28 scFv signal [1] | CD28 scFv signal in presence of CD28 [2]
39 | MDWCPKVMWHYCFA (on phage (pIII fusion)) [Phage-250 clonal phage peptide] | 1.14 | 0.252
40 | MDWCPRSLWFLCFN (on phage (pIII fusion)) [Phage-281 clonal phage peptide] | 2.71 | 1.77
41 | MDWCPKHLWTECFA (on phage (pIII fusion)) [Phage-242 clonal phage peptide] | 2.49 | 0.145
42 | MDWCPRFMWSECFS (on phage (pIII fusion)) [Phage-251 clonal phage peptide] | 1.01 | 0.137
43 | MDWCPPYLWSECFA (on phage (pIII fusion)) [Phage-238 clonal phage peptide] | 2.6 | 0.234
44 | MDWCPRYLWSECFA (on phage (pIII fusion)) [Phage-254 clonal phage peptide] | 2.71 | 0.513
45 | MTLCLSVDLVHCWY (on phage (pIII fusion)) [Phage-267 clonal phage peptide] | 0.632 | 0.093
46 | MDWCPRHLWHECYS (on phage (pIII fusion)) [Phage-241 clonal phage peptide] | 2.58 | 0.374
47 | MDWCPRFMWAECFN (on phage (pIII fusion)) [Phage-247 clonal phage peptide] | 2.6 | 0.341
48 | WVSCLRHHWLECFH (on phage (pIII fusion)) [Phage-274 clonal phage peptide] | 0.723 | 0.858
49 | MVWCMSVGWAVCLN (on phage (pIII fusion)) [Phage-272 clonal phage peptide] | 0.271 | 0.284
50 | MDWCPRHMWHECFA (on phage (pIII fusion)) [Phage-263 clonal phage peptide] | 2.52 | 0.298
51 | MDWCPRDFWAFCFF (on phage (pIII fusion)) [Phage-270 clonal phage peptide] | 2.37 | 0.655
52 | MDWCPRDLWFACFA (on phage (pIII fusion)) [Phage-282 clonal phage peptide] | 2.66 | 0.794
53 | MDWCPRYLWAECFN (on phage (pIII fusion)) [Phage-279 clonal phage peptide] | 2.74 | 1.14
54 | MDWCPIYLWAECFN (on phage (pIII fusion)) [Phage-299 clonal phage peptide] | 2.45 | 0.307
55 | MDWCPRDHWVDCYS (on phage (pIII fusion)) [Phage-275 clonal phage peptide] | 0.671 | 0.092
56 | MDWCPRNLWHACFN (on phage (pIII fusion)) [Phage-259 clonal phage peptide] | 1.57 | 0.112
